Experiments:
[1] = test system: PS-coated liposomes (DOPC/ DOPS (3:1,v/v)); assay: Biacore SPR binding assay with PS-containing liposomes; conditions: for dissociation koff: zinc-coordinated, DOPC/DOPS (3:1) liposomes, 25 °C, DOPC reference
Method: Phospholipids, 1,2-dioleoyl-sn-glycero-3-phosphocholine (DOPC), and 1,2-dioleoyl-sn-glycero-3-[phospho-L-serine] (DOPS) were obtained from Avanti Polar Lipids (Alabaster, AL) in chloroform solutions. These stock solutions were combined to the indicated ratios. To a round-bottom flask, a 0.4 mL aliquot of lipid solution at concentration of 10 mg/mL was added and evaporated under a N2 gas stream to furnish a thin lipid film. Rehydration of lipid films was carried out in PBS buffer for at least 1 h at room temperature. Resulting suspensions were extruded through a 100 nm polycarbonate filter using an Avanti MiniExtruder following the manufacturer’s instructions. Zeta potential (ZP) and liposomes’ size distributions were recorded by dynamic light scattering (DLS) and microelectrophoresis using a Zetasizer Nano ZS instrument. Then, using a Biacore T200 biosensor equipped with an L1 sensor chip (GE Healthcare), binding kinetics between the conjugates and liposome were recorded at 25 °C. Preconditioning of new sensor chips was performed with running buffer (5% DMSO in phosphate-buffered saline (PBS) with final pH 7.4) and two consecutive 30 s pulses of 2:3 v/v 50 mM HCl/isopropanol at a flow rate of 30 μL/min. A fresh liposome capture plate was prepared for each binding cycle. In PBS buffer, liposomes were diluted to 0.5–1 mM and captured to saturation (30–150 s) across isolated flow cells at 2–5 μL/min. In a single injection, conjugates were first diluted with running buffer and injected over lipid surfaces. At flow rate of 30 μL/min, association and dissociation phases were examined for 60s. At the end of each binding cycle, the surface was regenerated by injecting 2:3 v/v 50 mM HCl/isopropanol and equilibrated with running buffer before the next injection of the test compound. […]
Figure S3. […] Zinc-coordinated dipicolylamine 24 and modified analog 11 were analyzed across a two-fold concentration series descending from 31.3 μM. The association was monitored for 1 min, and the dissociation time was 1 min. […]

[2] = test system: Detroit 551 normal skin fibroblast; assay: MTS cell viability assay, Detroit 551; type: cell-based; conditions: Homo sapiens, 72 h incubation
Method: (§1) The MTS assay was performed to examine cell viability.

[3] = test system: HCC 1806 human triple-negative breast cancer cell; assay: MTS cell viability assay, HCC1806; type: cell-based; conditions: 72 h incubation
Method: as §1

[4] = test system: MIA PaCa-2 human pancreatic cells; assay: MTS cell viability assay, MIA PaCa-2; type: cell-based; conditions: 72 h incubation, read-out: MIA PaCa2 IC50
Method: as §1

[5] = test system: MIA PaCa-2 human xenografts; assay: MIA PaCa-2 xenograft antitumor efficacy
Method: Cancer cells, suspending in phenol red free medium/DPBS, were mixed with Matrigel (356237, BD Biosciences, San Jose CA, USA) in a 1:1 ratio. Human pancreatic cancer MIA PaCa-2 (1 × 10^6 cells) or triple-negative breast cancer HCC1806 (1 × 10^6cells) cells were subcutaneously inoculated to left flanks of male nude mice 6 weeks old (Biolasco, Taiwan) or female nude mice 6 weeks old by using a 1 mL syringe (needle 24G × 1 in., 0.55 × 25 mm; TERUMO). Tumor dimensions were measured twice a week with an electronic caliper (FOW54-200-777, PRO-MAX, Newton, Massachusetts, USA), and the volume of the subcutaneously growing tumor in mm^3 was calculated by the following formula: volume = (length × width[2])/2. Conjugates were formulated 10% DMA/20% Cremophor EL/70% injectable solution of 5% dextrose (D5W) for treating MIA PaCa-2 and HCC1806 xenograft tumors. […] Body weight of the mice and tumor volume were measured twice weekly.

[6] = Single intravenous dose pharmacokinetic study; conditions: male ICR mice; for AUC(0-24 hr) Conjugate: intact conjugate; for AUC(0-24 hr) Conjugate / CL / Vss: 5 mg/kg intravenous; for CL / Vss: n = 3; for AUC(0-24 hr) Drug: released payload 14, 5 mg/kg intravenous of conjugate
Method: Six-week-old male ICR mice, from the Biolasco Taiwan, were divided into groups of three and dosed at 5 mg/kg intravenously. Blood samples were drawn from each animal at time points of 0.003, 0.083, 0.25, 0.5, 1, 2, 4, 6, 8, and 24 h and stored on ice (0–4 °C). With centrifugation (3000 rpm for 15 min at 4 °C in a Beckman Model Allegra 6R centrifuge), plasma was separated from the blood and stored in frozen conditions (−20 °C). […] The mice were sacrificed, and the blood samples of 0.5 mL each and tumor samples were collected at 0.5, 2, 6, 24, 72, and 168 h after administration. Each time point group included 4 mice. Mouse blood samples were collected in EDTA tubes and centrifuged at 13,000 rpm for 5 min at 4°C for plasma collection. Plasma and the harvested tumor samples were stored at −80°C until use. Fifty microliters of mouse plasma or the sample of tumor homogenated in ddH2O with dilution ratio of 1:3 (w/v) by MiniBeadbeater-16 (BioSpec Products Inc., OK, USA) was mixed with 100 μL of acetonitrile containing 250 ng/mL BPR0L187. The mixture was vortexed for 30 s and then centrifuged at 15000g for 20 min. The supernatant was transferred to a clean tube, and 15 μL of the supernatant was injected onto LC/MS/MS. Plasma samples were analyzed by liquid chromatography tandem mass spectrometry (LC/MS/MS). The chromatographic system Agilent 1200 series LC system and an Agilent ZORBAX Eclipse XDB-C8 column (5 μm, 3.0 × 150 mm) interfaced to an MDS Sciex API4000 tandem mass spectrometer equipped with an ESI in the positive scanning mode at 600 °C was used. Data acquisition was collected via multiple reactions monitoring (MRM). A gradient system was employed for the separation of analyte and IS. Mobile phase A was 10 mM ammonium acetate aqueous solution containing 0.1% formic acid. Mobile phase B was acetonitrile. The gradient profile was as follows: 0.0–1.1 min, 50% B; 1.2–3.7 min, 55%B–90%B; 3.8–5.0 min, 90%B–50%B. The flow rate was 1.5 mL/min. The autosampler was programmed to inject 15 μL of the sample every 5 min.

[7] = Plasma incubation and tumor homogenate cleavage of conjugate; type: in vitro ADME; conditions: glutathione transferase inhibitor added to tumor homogenate
Description: Figure 3 In vivo targeting ability, plasma stability, and in vivo biodistribution of modified zinc dipicolylamine conjugates in subcutaneous HCC1806 tumor xenografts. […] (B) In vivo detection of PS-expression in the HCC1806 tumor xenograft model. Representative IVIS images of new Zn11-794 fluorescence probe in mice.

[8] = MIA PaCa-2 xenograft, 2 mg/kg intravenous (Figure S4)
[9] = 1 mg/kg intravenously twice weekly for two weeks (Figure 4)

Question: With NCCCCOc1cc(CN(Cc2ccccn2)Cc2ccccn2)cc(CN(Cc2ccccn2)Cc2ccccn2)c1 [Compound 24, reference compound] as the compound, how does the dissociation koff [1] read?
Answer: Its dissociation koff is 0.0113 s^–1.

Question: Which “improvement of dissociation koff over compound 24” value ([1]; PS-containing liposomes) does the source give for CCCCCC(=O)Nc1cccc(CN(Cc2cc(CN(Cc3ccccn3)Cc3cccc(NC(=O)CCCCC)n3)cc(OCCCCN)c2)Cc2ccccn2)n1 [Compound 11] here?
Answer: The value was 3 fold.

Question: What about the dissociation koff [1] of the same compound?
Answer: The dissociation koff was 0.00358 s^–1.

Question: With COc1cc2cc(c1Cl)N(C)C(=O)C[C@H](OC(=O)[C@H](C)N(C)C(=O)CCS)[C@]1(C)O[C@H]1[C@H](C)[C@@H]1C[C@@](O)(NC(=O)O1)[C@H](OC)/C=C/C=C(\C)C2 [Compound 14, DM1] as the compound, how does the IC50 [2] read?
Answer: Its IC50 is greater than 20 µM.

Question: And the IC50 [3]?
Answer: The IC50 was 0.008 ± 0.003 µM.

Question: And the IC50 [4]?
Answer: The IC50 was 0.074 ± 0.027 µM.

Question: What does the source list for COc1cc2cc(c1Cl)N(C)C(=O)C[C@H](OC(=O)[C@H](C)N(C)C(=O)CCSSc1ccc(C(=O)NCCCCOc3cc(CN(Cc4ccccn4)Cc4ccccn4)cc(CN(Cc4ccccn4)Cc4ccccn4)c3)cc1)[C@]1(C)O[C@H]1[C@H](C)[C@@H]1C[C@@](O)(NC(=O)O1)[C@H](OC)/C=C\C=C(/C)C2.O=[N+]([O-])[O-].O=[N+]([O-])[O-].O=[N+]([O-])[O-].O=[N+]([O-])[O-].[Zn+2].[Zn+2] [Compound 27b, (1S,2R,3S,5S,6S,16E,18Z,20R,21S)-11-Chloro-21-hydroxy-12,20-dimethoxy-2,5,9,16-tetramethyl-8,23-dioxo-4,24-dioxa-9,22-diazatetracyclo[19.3.1.1.^10,140^3,5]hexacosa-10(26),11,13,16,18-pentaen-6-yl (2S)-2-[{3-[(4-{[4-(3,5-bis{[bis(Pyridin-2-ylmethyl)amino]methyl}phenoxy)butyl]carbamoyl}phenyl)disulfanyl]propanoyl}(methyl)amino]propanoate·2[Zn(NO3)2]]?
Answer: antitumor activity [5, 8]: exhibited antitumor activities; body weight change during treatment [5, 8]: significant body weight loss; AUC(0-24 hr) Conjugate [6]: 318 ng·h/mL; CL [6]: 294 mL/min/kg; Vss [6]: 83 L/kg; AUC(0-24 hr) Drug [6]: 216 ng·h/mL

Question: For CCCCCC(=O)Nc1cccc(CN(Cc2cc(CN(Cc3ccccn3)Cc3cccc(NC(=O)CCCCC)n3)cc(OCCCCNC(=O)COCCOCCOCC(=O)NCc3ccc(CNC(=O)CCSSCCC(=O)N(C)[C@@H](C)C(=O)O[C@H]4CC(=O)N(C)c5cc(cc(OC)c5Cl)C/C(C)=C/C=C\[C@@H](OC)[C@@]5(O)C[C@H](OC(=O)N5)[C@@H](C)[C@@H]5O[C@@]45C)cc3)c2)Cc2ccccn2)n1.O=[N+]([O-])[O-].O=[N+]([O-])[O-].O=[N+]([O-])[O-].O=[N+]([O-])[O-].[Zn+2].[Zn+2] [Compound 36], which antitumor efficacy [5, 9] is on record?
Answer: The antitumor efficacy was “potent antitumor efficacies”.

Question: And the “body weight change during treatment” value [5, 9]?
Answer: Its value is “without apparent body weight loss”.

Question: What about the “AUC(0-24 hr) Conjugate” value [6] of the same compound?
Answer: Its value is 14244 ng·h/mL.

Question: And the CL [6]?
Answer: The CL was 6.0 mL/min/kg.

Question: What about the Vss [6] of the same compound?
Answer: Its Vss is 0.4 L/kg.

Question: What about the “AUC(0-24 hr) Drug” value [6] of the same compound?
Answer: The value was 640 ng·h/mL.

Question: For C=C(CC)C(=O)c1ccc(OCC(=O)O)c(Cl)c1Cl [ethacrynic acid, reference compound], which “effect on abundance of intact conjugate 40a in tumor homogenate” value [7] is on record?
Answer: Its value is “significantly rescued”.

Question: With CCCCCC(=O)Nc1cccc(CN(Cc2cc(CN(Cc3ccccn3)Cc3cccc(NC(=O)CCCCC)n3)cc(OCCCCNC(=O)CCSSCCC(=O)N(C)[C@@H](C)C(=O)O[C@H]3CC(=O)N(C)c4cc(cc(OC)c4Cl)C/C(C)=C/C=C\[C@@H](OC)[C@@]4(O)C[C@H](OC(=O)N4)[C@@H](C)[C@@H]4O[C@@]34C)c2)Cc2ccccn2)n1.O=[N+]([O-])[O-].O=[N+]([O-])[O-].O=[N+]([O-])[O-].O=[N+]([O-])[O-].[Zn+2].[Zn+2] [Compound 33, (1S,2R,3S,5S,6S,16E,18Z,20R,21S)-11-Chloro-21-hydroxy-12,20-dimethoxy-2,5,9,16-tetramethyl-8,23-dioxo-4,24-dioxa-9,22-diazatetracyclo[19.3.1.1.^10,140^3,5]hexacosa-10(26),11,13,16,18-pentaen-6-yl (2S)-2-[{3-[(3-{[4-(3,5-bis{[{[6-(Hexanoylamino)pyridin-2-yl]methyl}(pyridin-2-ylmethyl)amino]methyl}phenoxy)butyl]amino}-3-oxopropyl)disulfanyl]propanoyl}(methyl)amino]propanoate·2[Zn(NO3)2]] as the compound, how does the antitumor activity [5, 8] read?
Answer: Its antitumor activity is “exhibited antitumor activities”.

Question: And the “body weight change during treatment” value [5, 8]?
Answer: The value was “significant body weight loss”.

Question: And the “AUC(0-24 hr) Conjugate” value [6]?
Answer: The value was 14379 ng·h/mL.

Question: What about the CL [6] of the same compound?
Answer: Its CL is 6.8 mL/min/kg.

Question: What about the Vss [6] of the same compound?
Answer: Its Vss is 0.5 L/kg.

Question: And the “AUC(0-24 hr) Drug” value [6]?
Answer: Its value is 270 ng·h/mL.

Question: With COc1cc2cc(c1Cl)N(C)C(=O)C[C@H](OC(=O)[C@H](C)N(C)C(=O)CCC(C)(C)S)[C@]1(C)O[C@H]1[C@H](C)[C@@H]1C[C@@](O)(NC(=O)O1)[C@H](OC)/C=C/C=C(\C)C2 [Compound 16, DM4] as the compound, how does the IC50 [2] read?
Answer: Its IC50 is greater than 20 µM.

Question: And the IC50 [3]?
Answer: Its IC50 is 0.004 µM.

Question: And the IC50 [4]?
Answer: The IC50 was 0.03 ± 0.003 µM.
